This note sets out measurements from US20060035332.

Assay [1] deals with human OT7T022 receptor (human). Kind of assay: competition, 125I-Tyr-hRFRP-3(8), pH 7.5, room temperature. Particulars: modification not given.
Assay [2] concerns the target human OT7T022 receptor (human). Kind of assay: competition. Particulars: modification not given.

human OT7T022 receptor (human), sequence (chain, as listed by the source): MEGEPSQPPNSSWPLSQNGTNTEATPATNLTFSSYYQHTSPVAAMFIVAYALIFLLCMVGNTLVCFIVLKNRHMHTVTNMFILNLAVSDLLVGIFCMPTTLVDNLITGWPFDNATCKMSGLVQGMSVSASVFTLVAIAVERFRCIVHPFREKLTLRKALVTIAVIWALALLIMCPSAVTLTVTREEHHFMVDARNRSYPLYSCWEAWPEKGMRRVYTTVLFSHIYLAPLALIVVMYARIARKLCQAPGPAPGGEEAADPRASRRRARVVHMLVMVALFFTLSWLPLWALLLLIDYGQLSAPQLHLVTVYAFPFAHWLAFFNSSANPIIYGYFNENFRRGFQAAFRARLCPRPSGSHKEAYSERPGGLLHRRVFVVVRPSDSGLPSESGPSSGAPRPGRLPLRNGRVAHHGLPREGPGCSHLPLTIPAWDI

As a reminder, the IC50 is the point on the concentration scale where inhibition reaches its midpoint. Molecule LPQRF [hRFRP-3(5)] had an IC50 in assay [1] of 2.1 nM. In other words, the single-digit nanomolar range.
SAGATANLPLRSGRNMEVSLVRRVPNLPQRF [hRFRP-3(31)] had an IC50 in assay [1] of 1.3 nM.
With PNLPQRF [hRFRP-3(7)], the IC50 in assay [2] is 0.62 nM.
Turning to NLPQRF [hRFRP-3(6)], in assay [2], the half-maximal inhibitory concentration (IC50) was 2.6 nM.
In turn, ATANLPLRSGRNMEVSLVRRVPNLPQRF [hRFRP-3(28)] registered an IC50 in assay [1] of 1.1 nM.
